Measurements published in patent US20110269817A1 (University of California, published 2011).

Target: Myc-tagged PER2 (transfected in JEG3 cells) (UniProt O54943 1-1257, limits assumed)
Assay: coimmunoprecipitation with FLAG antibody from cotransfected JEG3 cells, Western with anti-Myc (FIG. 5A)
Method: (A) JEG3 cells were cotransfected with a series of expression vectors as described. Flag-tagged SIRT1 proteins were immunoprecipitated by FLAG antibody, and abundance of coimmunoprecipitated proteins was determined by western blotting using anti-Myc antibody (top right panel) and anti-SIRT1 antibody (bottom right panel). Left panels show the immunoblotting results of total cell lysates as an input.

Chain of Myc-tagged PER2 (transfected in JEG3 cells) (O54943 whole entry): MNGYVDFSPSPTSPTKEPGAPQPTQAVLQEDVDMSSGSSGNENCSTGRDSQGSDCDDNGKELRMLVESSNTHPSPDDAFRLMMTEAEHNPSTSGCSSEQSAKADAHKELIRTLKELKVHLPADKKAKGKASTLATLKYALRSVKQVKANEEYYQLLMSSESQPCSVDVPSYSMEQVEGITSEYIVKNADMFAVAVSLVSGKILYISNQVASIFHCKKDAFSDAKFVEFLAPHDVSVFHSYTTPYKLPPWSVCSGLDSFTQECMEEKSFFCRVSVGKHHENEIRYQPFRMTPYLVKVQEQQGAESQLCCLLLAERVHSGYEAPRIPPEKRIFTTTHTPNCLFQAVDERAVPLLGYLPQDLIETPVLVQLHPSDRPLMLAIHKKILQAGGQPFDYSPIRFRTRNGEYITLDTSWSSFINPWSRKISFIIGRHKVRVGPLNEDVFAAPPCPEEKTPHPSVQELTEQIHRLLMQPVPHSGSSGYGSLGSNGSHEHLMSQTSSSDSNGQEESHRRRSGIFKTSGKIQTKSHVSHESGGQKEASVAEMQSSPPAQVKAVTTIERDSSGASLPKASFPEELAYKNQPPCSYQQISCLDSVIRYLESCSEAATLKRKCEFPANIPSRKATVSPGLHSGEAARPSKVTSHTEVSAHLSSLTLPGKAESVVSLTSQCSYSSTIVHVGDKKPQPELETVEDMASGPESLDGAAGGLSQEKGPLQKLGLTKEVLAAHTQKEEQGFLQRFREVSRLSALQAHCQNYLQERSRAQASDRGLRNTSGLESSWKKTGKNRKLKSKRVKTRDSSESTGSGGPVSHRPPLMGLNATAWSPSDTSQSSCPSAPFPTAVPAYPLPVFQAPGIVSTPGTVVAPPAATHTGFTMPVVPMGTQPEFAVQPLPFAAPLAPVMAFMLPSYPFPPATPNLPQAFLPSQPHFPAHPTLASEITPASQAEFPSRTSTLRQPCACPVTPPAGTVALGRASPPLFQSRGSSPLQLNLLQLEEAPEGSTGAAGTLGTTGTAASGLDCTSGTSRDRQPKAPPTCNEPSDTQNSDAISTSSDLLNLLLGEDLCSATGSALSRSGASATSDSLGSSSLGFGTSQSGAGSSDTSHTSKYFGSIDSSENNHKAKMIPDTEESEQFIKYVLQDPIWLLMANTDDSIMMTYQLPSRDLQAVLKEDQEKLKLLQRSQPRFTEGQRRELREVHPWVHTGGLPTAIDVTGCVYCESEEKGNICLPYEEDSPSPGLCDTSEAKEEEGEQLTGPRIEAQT

B1: Flag-tagged SIRT1 (transfected in JEG3 cells) (enzyme, mouse, UniProt Q923E4 1-737, looked up, not shown: small tags and cut ends)
chain: MADEVALALQAAGSPSAAAAMEAASQPADEPLRKRPRRDGPGLGRSPGEPSAAVAPAAAGCEAASAAAPAALWREAAGAAASAEREAPATAVAGDGDNGSGLRREPRAADDFDDDEGEEEDEAAAAAAAAAIGYRDNLLLTDGLLTNGFHSCESDDDDRTSHASSSDWTPRPRIGPYTFVQQHLMIGTDPRTILKDLLPETIPPPELDDMTLWQIVINILSEPPKRKKRKDINTIEDAVKLLQECKKIIVLTGAGVSVSCGIPDFRSRDGIYARLAVDFPDLPDPQAMFDIEYFRKDPRPFFKFAKEIYPGQFQPSLCHKFIALSDKEGKLLRNYTQNIDTLEQVAGIQRILQCHGSFATASCLICKYKVDCEAVRGDIFNQVVPRCPRCPADEPLAIMKPEIVFFGENLPEQFHRAMKYDKDEVDLLIVIGSSLKVRPVALIPSSIPHEVPQILINREPLPHLHFDVELLGDCDVIINELCHRLGGEYAKLCCNPVKLSEITEKPPRPQKELVHLSELPPTPLHISEDSSSPERTVPQDSSVIATLVDQATNNNVNDLEVSESSCVEEKPQEVQTSRNVENINVENPDFKAVGSSTADKNERTSVAETVRKCWPNRLAKEQISKRLEGNQYLFVPPNRYIFHGAEVYSDSEDDVLSSSSCGSNSDSGTCQSPSLEEPLEDESEIEEFYNGLEDDTERPECAGGSGFGADGGDQEVVNEAIATRQELTDVNYPSDKS
notes: The plasmid list holds a mouse N-terminal FLAG construct and also Flag-hSIRT1/pECE, so the species used in these experiments is not certain; also called Flag-SIRT1
- binding result: no binding
